In IntAct's records for PubMed 11604410:

B1: Serine protease HTRA2, mitochondrial (Mus musculus), Q9JIY5 (parent)
chain: MAALKAGRGANWSLRAWRALGGIFWRKPPLLAPDLRALLTSGTPDSQIWMTYGTPSLPAQVPEGFLASRADLTSRTPDLWARLNVGTSGSSDQEARRSPGSRRREWLAVAVGAGGAVVLLLWGWGRGLSTVLAAVPAPPPTSPRSQYNFIADVVEKTAPAVVYIEILDRHPFSGREVPISNGSGFVVASDGLIVTNAHVVADRRRVRVRLPSGDTYEAMVTAVDPVADIATLRIQTKEPLPTLPLGRSADVRQGEFVVAMGSPFALQNTITSGIVSSAQRPARDLGLPQNNVEYIQTDAAIDFGNSGGPLVNLDGEVIGVNTMKVTAGISFAIPSDRLREFLHRGEKKNSWFGTSGSQRRYIGVMMLTLTPSILIELQLREPSFPDVQHGVLIHKVILGSPAHRAGLRPGDVILAIGEKLAQNAEDVYEAVRTQSQLAVRIRRGSETLTLYVTPEVTE
B2: Diablo IAP-binding mitochondrial protein (Mus musculus), Q9JIQ3 (parent)
chain: MAALRSWVTRSVCSLFRYRQRFPVLANSKKRCFSELIKPWHKTVLTGFGMTLCAVPIAQKSEPQSLSNEALMRRAVSLVTDSTSTFLSQTTYALIEAITEYTKAVYTLVSLYRQYTSLLGKMNSQEEDEVWQVIIGARVEMTSKQQEYLKLETTWMTAVGLSEMAAEAAYQTGADQASITARNHIQLVKSQVQEVRQLSQKAETKLAEAQTKELHQKAQEVSDEGADQEEEAYLRED

Variants of: B1
Conditions: with xiap_human XIAP

Row | effect of a mutation on the interaction | Variant
1 | increasing interaction | MAALKAGRGANWSLRAWRALGGIFWRKPPLLAPDLRALLTSGTPDSQIWMTYGTPSLPAQVPEGFLASRADLTSRTPDLWARLNVGTSGSSDQEARRSPGSRRREWLAVAVGAGGAVVLLLWGWGRGLSTVLAAVPAPPPTSPRSQINFIADVVEKTAPAVVYIEILDRHPFSGREVPISNGSGFVVASDGLIVTNAHVVADRRRVRVRLPSGDTYEAMVTAVDPVADIATLRIQTKEPLPTLPLGRSADVRQGEFVVAMGSPFALQNTITSGIVSSAQRPARDLGLPQNNVEYIQTDAAIDFGNSGGPLVNLDGEVIGVNTMKVTAGISFAIPSDRLREFLHRGEKKNSWFGTSGSQRRYIGVMMLTLTPSILIELQLREPSFPDVQHGVLIHKVILGSPAHRAGLRPGDVILAIGEKLAQNAEDVYEAVRTQSQLAVRIRRGSETLTLYVTPEVTE [Y147I]

Variants of: B1
Conditions: with xiap_human XIAP
Remark: another data set of the same source

Row | effect of a mutation on the interaction | Variant
2 | disrupting interaction | MAALKAGRGANWSLRAWRALGGIFWRKPPLLAPDLRALLTSGTPDSQIWMTYGTPSLPAQVPEGFLASRADLTSRTPDLWARLNVGTSGSSDQEARRSPGSRRREWLAVAVGAGGAVVLLLWGWGRGLSTVLAAVPAPPPTSPGSQYNFIADVVEKTAPAVVYIEILDRHPFSGREVPISNGSGFVVASDGLIVTNAHVVADRRRVRVRLPSGDTYEAMVTAVDPVADIATLRIQTKEPLPTLPLGRSADVRQGEFVVAMGSPFALQNTITSGIVSSAQRPARDLGLPQNNVEYIQTDAAIDFGNSGGPLVNLDGEVIGVNTMKVTAGISFAIPSDRLREFLHRGEKKNSWFGTSGSQRRYIGVMMLTLTPSILIELQLREPSFPDVQHGVLIHKVILGSPAHRAGLRPGDVILAIGEKLAQNAEDVYEAVRTQSQLAVRIRRGSETLTLYVTPEVTE [R144G]

Variants of: B2
Conditions: with xiap_mouse Xiap

Row | effect of a mutation on the interaction | Variant
3 | disrupting interaction | MAALRSWVTRSVCSLFRYRQRFPVLANSKKRCFSELIKPWHKTVLTGFGMTLCGVPIAQKSEPQSLSNEALMRRAVSLVTDSTSTFLSQTTYALIEAITEYTKAVYTLVSLYRQYTSLLGKMNSQEEDEVWQVIIGARVEMTSKQQEYLKLETTWMTAVGLSEMAAEAAYQTGADQASITARNHIQLVKSQVQEVRQLSQKAETKLAEAQTKELHQKAQEVSDEGADQEEEAYLRED [A54G]
